Test results reported in article doi:10.1101/2023.02.23.529715 (bioRxiv, 2023).
Read-outs that look alike come from different tables or passages of the source.

T1: GFP-HilD (Salmonella enterica, UniProt P0CL08 1-309)
T1 sequence (looked up): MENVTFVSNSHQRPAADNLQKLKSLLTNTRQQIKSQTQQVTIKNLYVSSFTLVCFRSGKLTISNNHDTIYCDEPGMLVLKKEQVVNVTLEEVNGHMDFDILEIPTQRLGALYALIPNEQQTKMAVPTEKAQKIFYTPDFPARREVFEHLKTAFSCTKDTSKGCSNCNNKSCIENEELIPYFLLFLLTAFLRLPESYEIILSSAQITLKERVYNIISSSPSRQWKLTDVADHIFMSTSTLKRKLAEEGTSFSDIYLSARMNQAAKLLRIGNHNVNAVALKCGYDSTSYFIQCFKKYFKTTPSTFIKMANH

B1: HilD (full length, unfused) (natural protein, Salmonella enterica, UniProt P0CL08 1-309, looked up)
chain: MENVTFVSNSHQRPAADNLQKLKSLLTNTRQQIKSQTQQVTIKNLYVSSFTLVCFRSGKLTISNNHDTIYCDEPGMLVLKKEQVVNVTLEEVNGHMDFDILEIPTQRLGALYALIPNEQQTKMAVPTEKAQKIFYTPDFPARREVFEHLKTAFSCTKDTSKGCSNCNNKSCIENEELIPYFLLFLLTAFLRLPESYEIILSSAQITLKERVYNIISSSPSRQWKLTDVADHIFMSTSTLKRKLAEEGTSFSDIYLSARMNQAAKLLRIGNHNVNAVALKCGYDSTSYFIQCFKKYFKTTPSTFIKMANH
B2: HilD N-terminal domain (HilD NTD, residues 7-206) (domain or fragment, Salmonella enterica, UniProt P0CL08 7-206, looked up)
chain: VSNSHQRPAADNLQKLKSLLTNTRQQIKSQTQQVTIKNLYVSSFTLVCFRSGKLTISNNHDTIYCDEPGMLVLKKEQVVNVTLEEVNGHMDFDILEIPTQRLGALYALIPNEQQTKMAVPTEKAQKIFYTPDFPARREVFEHLKTAFSCTKDTSKGCSNCNNKSCIENEELIPYFLLFLLTAFLRLPESYEIILSSAQIT

Experiments:
[1] = target: HilD (full length, unfused) (Salmonella enterica) (UniProt P0CL08); assay: SEC-MALS
[2] = target: HilD N-terminal domain (HilD NTD, residues 7-206) (Salmonella enterica) (UniProt P0CL08); assay: SEC-MALS
[3] = target: GFP-HilD (Salmonella enterica) (UniProt P0CL08); assay: MST
[4] = target: GFP-HilD (Salmonella enterica) (UniProt P0CL08); assay: MST; remark: listed apart in the source
[5] = target: T1, GFP-HilD; assay: MST
[6] = target: the molecule itself; assay: SEC-MALS
[7] = target: T1, GFP-HilD; assay: MST; remark: listed apart in the source

Molecule | stoichiometry N (HilE per HilD) [1] | stoichiometry N (HilE per HilD NTD) [2] | Kd [3] [nM] | Kd [4] [nM] | Kd [5] [nM] | stoichiometry N [6] | Kd [7] [nM]
HilE (natural protein) | 1 | 1 | 1680 | 1700 |  |  | 
B1 |  |  |  |  | 4520 ± 500 | 2 | 3390 ± 770
B2 |  |  |  |  |  | 2 | 
